Measured values reported in patent US12398194.

Tests used:
CD19 (human) = CD19 (human) (UniProt P15391); test: SPR (Biacore T200), scFv-Fc captured on an anti-IgG CM5 chip, interaction partner injected, 1:1 Langmuir fit
CD22 (human) = CD22 (human) (UniProt P20273); test: as above

Sequence of CD19 (human) (P15391 21-278 limits assumed): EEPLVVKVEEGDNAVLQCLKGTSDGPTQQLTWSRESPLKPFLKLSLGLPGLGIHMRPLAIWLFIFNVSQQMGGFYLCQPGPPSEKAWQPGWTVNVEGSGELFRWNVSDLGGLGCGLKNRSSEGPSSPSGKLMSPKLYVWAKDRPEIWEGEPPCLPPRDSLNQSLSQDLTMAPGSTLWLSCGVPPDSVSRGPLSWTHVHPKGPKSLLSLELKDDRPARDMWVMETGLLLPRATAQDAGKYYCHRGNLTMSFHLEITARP

| koff (CD19 (human)) [s⁻¹] | kon (CD19 (human)) [M⁻¹ s⁻¹] | Kd (CD22 (human)) [nM] | koff (CD22 (human)) [s⁻¹] | kon (CD22 (human)) [M⁻¹ s⁻¹] | Binder |
| --- | --- | --- | --- | --- | --- |
| 0.000328 | 178000 |  |  |  | murine CD19ALAb scFv (scFv, part only; not given: VH-VL linker and Fc, not shown: another chain or arm of the molecule; a dimerising Fc or GST; small tags and cut ends) scFv: QVQLQQSGAELVRPGSSVKISCKASGYAFSSYWMNWVKQRPGQGLEWIGQIWPGDGDTNYNGKFKGKATLTADESSSTAYMQLSSLASEDSAVYFCARRETTTVGRYYYAMDYWGQGTTVTVSSDIQLTQSPASLAVSLGQRATISCKASQSVDYDGDSYLNWYQQIPGQPPKLLIYDASNLVSGIPPRFSGSGSGTDFTLNIHPVEKVDAATYHCQQSTEDPWTFGGGTKLEIK |
|  |  | 32 | 0.00226 | 68300 | humanized CD22ALAb scFv (scFv, part only; not given: VH-VL linker and Fc, not shown: another chain or arm of the molecule; a dimerising Fc or GST; small tags and cut ends) scFv: EVQLVESGAEVKKPGSSVKVSCKASGYTFTNYWINWVRQAPGQGLEWIGNIYPSDSFTNYNQKFKDRATLTVDKSTSTAYLELRNLRSDDTAVYYCTRDTQERSWYFDVWGQGTLVTVSSDIVMTQSPATLSVSPGERATLSCRSSQSLVHSNGNTYLHWYQQKPGQAPRLLIYKVSNRFSGVPARFSGSGSGVEFTLTISSLQSEDFAVYYCSQSTHVPWTFGQGTRLEIK |
